Test results reported in patent US20100175139A1, “SOMATO[…]” (priority 2007, published 2010).

What was measured:
Format in all cases: cell-based
[1] = system: Smad7 promoter; assay: Smad7 promoter luciferase reporter in NIH-3T3 cells; settings: TGF-β3 over-expression
From the text: (§1) NIH-3T3 cells were transfected with plasmids containing TGF-β responsive elements driving luciferase expression. These cells were then transduced with a retroviral vector expressing TGF-β3. The SBE4 responsive element is specific to TGF-β activation via smad2/3 mediated transcriptional activation. This Smad activation can be further delineated to Smad2 specific transcriptional activation using the ARE responsive element in conjunction with the xenopus Fast-1 transactivator (ARE alone is only Smad2/3 specific). The BMP-specific responsive element activates through Smad1/5/8 activation and should not be responsive to TGF-β3 activity. […] The experiment was conducted as follows:
(§2) NIH-3T3 cells pre-plated at 1×10^6 cells/well and transfected with 10 μg of reporter plasmid by standard Calcium Phosphate precipitation. After 48 hours cells were transduced with either rKat.TGF-β3 or a control rKat.cmvGFP retrovirus. […] After 48 hours luciferase expression was measured in cell lysates. […] Relative luciferase activity was expressed in arbitrary units with respect to total protein measured by standard Bradford assay as by manufacturer's instructions (BioRad, Herts, UK).

[2] = system: BMP responsive element BRE (Smad1/5/8); assay: BMP responsive element BRE luciferase reporter in NIH-3T3 cells (negative control); settings: TGF-β3 over-expression
From the text: as §1, §2

[3] = system: MDF-CAGA(12)-Luc cells (Smad2/3 specific transcriptional activation); assay: CAGA(12)-Luc reporter in primary murine dermal fibroblasts; settings: conditioned medium from TGF-β3 over expressing cells vs GFP control
Description: A cell line transgenic for a synthetic TGF-β responsive element driving the firefly luciferase gene was generated from primary mouse dermal fibroblasts. The CAGA(12) Smad Binding Element (SBE) was placed upstream of a minimal promoter and will respond to Smad2/3 specific transcriptional activation. Primary murine dermal fibroblasts (MDF) were transduced with a lentiviral vector containing the CAGA(12)-Luc element. These cells were then incubated in conditioned medium from MDFs transduced with a lentivector expressing either TGF-β3 or GFP. The experiment was carried out as follows:
Murine dermal fibroblasts (MDF) were isolated as previously described by DiPersio et al. (DiPersio, C. M., S. Shah, and R. O. Hynes. 1995. alpha 3A beta 1 integrin localizes to focal contacts in response to diverse extracellular matrix proteins. J Cell Sci 108 (Pt 6):2321-36) and expanded to ˜60% confluence and transduced with a lentivector expressing a luciferase reporter gene under the control of either a smad 2/3-specific CAGA(12) promoter. Lentiviral preps were generated as described in Example 1. […] Relative luciferase activity was expressed in arbitrary units with respect to total protein measured by standard Bradford assay as by manufacturer's instructions (BioRad, Herts, UK).

[4] = system: ARE responsive element (Smad2/3 specific); assay: ARE responsive element luciferase reporter in NIH-3T3 cells; settings: TGF-β3 over-expression
From the text: as §1, §2

[5] = system: ARE responsive element with xenopus Fast-1 transactivator (Smad2 specific); assay: ARE/Fast-1 responsive element luciferase reporter in NIH-3T3 cells; settings: TGF-β3 over-expression
From the text: as §1, §2

[6] = system: SBE4 responsive element (smad2/3 mediated transcriptional activation); assay: SBE4 responsive element luciferase reporter in NIH-3T3 cells; settings: transgenic TGF-β3 over-expression vs control GFP retrovirus, 48 hours
From the text: as §1, §2

[7] = system: 293T cells transduced with Lenti/CAGA(12)-Luc; assay: Lenti/CAGA(12)-Luc reporter in 293T cells with or without human αvβ3 integrins; settings: conditioned medium from cells over-expressing TGF-β3
From the text: Human embryonic kidney 293T cells stably expressing the human αvβ3 integrins and control 293T cells were transduced with the Lenti/CAGA(12)-Luc vector to generate two transgenic lines. Again, these cells were subjected to conditioned medium from cells either over-expressing TGF-β3 or control cells. In more detail:
Human 293T cells stably transfected with αv and β3 integrin (293Tab) along with 293T controls were a kind gift from Dr. John Olsen, UNC, USA. 293T cells and 293Tabs were transduced with Lenti-CAGA(12)-Luc and human DFs were tranduced with lentivirus either expressing human TGF-β3iresGFP, mutant TGF-β3iresGFP or a GFP control. Cells were cultured for a further 48 hours prior to trypsinisation and mixing of 293 cells and transduced DFs in a 1:1 ratio. Cells were incubated for a further 24 hours in serum containing medium then incubated for 48 hours in serum depleted medium supplemented with ITS+1 (Sigma-Aldrich). Cells were subsequently either FACS analysed, to assess the ratio of 293T cells to DFs, or lysed for the purpose of quantifying the luciferase expression.

B1: TGF-β3: TGF-β3 over-expressed from a retroviral/lentiviral vector; cells exposed by transduction or conditioned medium (protein, UniProt P10600 301-412, looked up)
Transforming growth factor …: ALDTNYCFRNLEENCCVRPLYIDFRQDLGWKWVHEPKGYYANFCSGPCPYLRSADTTHSTVLGLYNTLNPEASASPCCVPQDLEPLTILYYVGRTPKVEQLSNMVVKSCKCS
luciferase response of Smad7 promoter over controls [1]: significant responses over controls
luciferase response of BRE element over controls [2]: did not show a significant response over controls
luciferase response compared to control [3]: significant luciferase response
luciferase response of ARE element over controls [4]: significant responses over controls
luciferase response of ARE/Fast-1 element over controls [5]: significant responses over controls
upregulation of SBE4 element over controls (luciferase) [6]: ~1000 fold
luciferase output in αvβ3 expressing cell lines compared to control 293T cells [7]: significantly enhanced
